In the assay the target is LC3B (for ITC and NMR) (human), Q9GZQ8. Briefly: ITC; peptide 0.4 mM titrated into 0.020 mM LC3/GABARAP protein in 26 steps, 25°C; 50 mM Na2HPO4, 100 mM NaCl, pH 7.0; one-site model.

In publication PMC5538626, “Structural and functional analysis of the GABARAP interaction motif (GIM)” (EMBO Reports, 2017) one finds Ka, Kd and dH data, which are given here for 2 molecules.

Usually Kd stands for the free concentration of one partner at which half of the binding sites on the other are occupied at equilibrium, for simple one-to-one binding. Lower therefore signals higher affinity.

In turn, PQQEDEAVNVQYPD (modifications not checked) [PLEKHM1‐LIR W635A peptide (ITC), Q9Y4G2 629-642] displayed a Ka of 10000 M⁻¹, a Kd above 100 µM and a dH of -0.8 kcal/mol.

With PQQEDEWGNVQYPD (modifications not checked) [PLEKHM1‐LIR V636G peptide (ITC), Q9Y4G2 629-642], the Ka turned out to be 10000 M⁻¹, the Kd was above 100 µM and the dH is -1.7 kcal/mol.
